Data from patent publication US20030170704A1, “Substance capable of controlling the inclusion of exon 10 of the tau gene, and its therapeutic use against tauopathies” (Max-Planck-Gesellschaft Zur Foerd Der Wissen. E.V., priority 1999, published 2003).

System: tau exon 10 inclusion (SV10 minigene)
Assay: RT-PCR of tau exon 10 minigene SV10 1:1 co-transfected with splicing regulator cDNA plasmids in COS cells
Assay type: cell-based, human
Conditions: 1:1 co-transfection, FIG. 4
Protocol: Plasmid DNA was purified by cesium chloride banding (Sambrook et al., 1989). The plasmids obtained in Examples 1 and 2 were introduced into cells by the lipofection method (LT1, Panvera).
Plates (100 mm) that had reached ˜30% confluence were transfected with 10 μg of construct DNA or 5 μg of each plasmid for co-transfections. The medium was changed 16 h after transfection, without glycerol shock.
Total RNA was isolated 48 h post-transfection by the TRIzol method (Life Technologies).
For PCR analysis of RNA, 5 mg of total RNA from transiently transfected cells or 1 mg of polyA^+ RNA were reverse transcribed using random hexamer primers and 200 units of reverse transcriptase (RNAase H^− Superscript, Life Technologies), in a total volume of 20 ml for 1 h at 42° C. Part of this reaction mix (5 ml) was then diluted to a final volume of 50 ml, the concentrations of the buffer and dNTPs were adjusted for PCR and the mixture was amplified for 22 cycles. The conditions were: for the endogenous gene, denaturation at 94° C. for 1 min, annealing at 58° C. for 1 min, extension at 72° C. for 1 min; for the constructs, denaturation at 94° C. for 1 min, annealing at 65° C. for 1 min, extension at 72° C. for 1 min.
The primer pair used for the endogenous exon 10 pattern was HT9SmS/1017HT (Table 2b). In the case of transfected cells, the primers INS1 and INS3 (Table 2b) were chosen to only amplify products arising from the constructs.
The RT-PCR experiments were done twice with the polyA^+ RNAs and with total RNAs from three independent transfections, to ensure reproducibility. […] In FIGS. 1-4, the percent of the 10^+ isoform was calculated by scanning the bands from three independent transfections and measuring the areas under the curves (by the IPLab Gel program from Scanalytics).
RT-PCR was performed in a manner as described in Example 4 (using primer pair: INS1/INS3), except that-mammalian cells were analyzed which had been 1:1 co-transfected with tau exon 10 containing minigene constructs (denoted SV 10) and with plasmids containing cDNA of various plicing regulators. […]

Molecule	effect on tau exon 10 inclusion (10+/10- isoform ratio by RT-PCR)
U2AF65: constitutive splicing factor, expressed from cDNA under the CMV promoter (protein, UniProt P26368 2-475, looked up) Splicing factor U2AF 65 kDa …: SDFDEFERQLNENKQERDKENRHRKRSHSRSRSRDRKRRSRSRDRRNRDQRSASRDRRRRSKPLTRGAKEEHGGLIRSPRHEKKKKVRKYWDVPPPGFEHITPMQYKAMQAAGQIPATALLPTMTPDGLAVTPTPVPVVGSQMTRQARRLYVGNIPFGITEEAMMDFFNAQMRLGGLTQAPGNPVLAVQINQDKNFAFLEFRSVDETTQAMAFDGIIFQGQSLKIRRPHDYQPLPGMSENPSVYVPGVVSTVVPDSAHKLFIGGLPNYLNDDQVKELLTSFGPLKAFNLVKDSATGLSKGYAFCEYVDINVTDQAIAGLNGMQLGDKKLLVQRASVGAKNATLVSPPSTINQTPVTLQVPGLMSSQVQMGGHPTEVLCLMNMVLPEELLDDEEYEEIVEDVRDECSKYGLVKSIEIPRPVDGVEVPGCGKIFVEFTSVFDCQKAMQGLTGRKFANRVVVTKYCDPDSYHRRDFW	inhibited
SRp75: serine/arginine-rich (SR) protein splicing regulator, expressed from cDNA under the CMV promoter (protein, UniProt Q08170 1-494, looked up) Serine/arginine-rich splicing …: MPRVYIGRLSYQARERDVERFFKGYGKILEVDLKNGYGFVEFDDLRDADDAVYELNGKDLCGERVIVEHARGPRRDGSYGSGRSGYGYRRSGRDKYGPPTRTEYRLIVENLSSRCSWQDLKDYMRQAGEVTYADAHKGRKNEGVIEFVSYSDMKRALEKLDGTEVNGRKIRLVEDKPGSRRRRSYSRSRSHSRSRSRSRHSRKSRSRSGSSKSSHSKSRSRSRSGSRSRSKSRSRSQSRSRSKKEKSRSPSKEKSRSRSHSAGKSRSKSKDQAEEKIQNNDNVGKPKSRSPSRHKSKSKSRSRSQERRVEEEKRGSVSRGRSQEKSLRQSRSRSRSKGGSRSRSRSRSKSKDKRKGRKRSREESRSRSRSRSKSERSRKRGSKRDSKAGSSKKKKKEDTDRSQSRSPSRSVSKEREHAKSESSQREGRGESENAGTNQETRSRSRSNSKSKPNLPSESRSRSKSASKTRSRSKSRSRSASRSPSRSRSRSHSRS	inhibited
hSWAP: specific splicing regulator Suppressor of White Apricot, expressed from the SV40 early promoter (protein, UniProt Q12872 1-951, looked up) Splicing factor, suppressor …: MYGASGGRAKPERKSGAKEEAGPGGAGGGGSRVELLVFGYACKLFRDDERALAQEQGQHLIPWMGDHKILIDRYDGRGHLHDLSEYDAEYSTWNRDYQLSEEEARIEALCDEERYLALHTDLLEEEARQEEEYKRLSEALAEDGSYNAVGFTYGSDYYDPSEPTEEEEPSKQREKNEAENLEENEEPFVAPLGLSVPSDVELPPTAKMHAIIERTASFVCRQGAQFEIMLKAKQARNSQFDFLRFDHYLNPYYKFIQKAMKEGRYTVLAENKSDEKKKSGVSSDNEDDDDEEDGNYLHPSLFASKKCNRLEELMKPLKVVDPDHPLAALVRKAQADSSTPTPHNADGAPVQPSQVEYTADSTVAAMYYSYYMLPDGTYCLAPPPPGIDVTTYYSTLPAGVTVSNSPGVTTTAPPPPGTTPLPPPTTAETSSGATSTTTTTSALAPVAAIIPPPPDVQPVIDKLAEYVARNGLKFETSVRAKNDQRFEFLQPWHQYNAYYEFKKQFFLQKEGGDSMQAVSAPEEAPTDSAPEKPSDAGEDGAPEDAAEVGARAGSGGKKEASSSKTVPDGKLVKASFAPISFAIKAKENDLLPLEKNRVKLDDDSDDDEESKEGQESSSSAANTNPAVAPPCVVVEEKKPQLTQEELEAKQAKQKLEDRLAAAAREKLAQASKESKEKQLQAERKRKAALFLQTLKNPLPEAEAGKIEESPFSVEESSTTPCPLLTGGRPLPTLEVKPPDRPSSKSKDPPREEEKEKKKKKHKKRSRTRSRSPKYHSSSKSRSRSHSKAKHSLPSAYRTVRRSRSRSRSPRRRAHSPERRREERSVPTAYRVSRSPGASRKRTRSRSPHEKKKKRRSRSRTKSKARSQSVSPSKQAAPRPAAPAAHSAHSASVSPVESRGSSQERSRGVSQEKEAQISSAIVSSVQSKITQDLMAKVRAMLAASKNLQTSAS	inhibited
